Experimental findings from paper PMC2172602 are described below.

The target of this experiment is αL-YFP/β2 (LFA-1 with dimerizing YFP on αL) on K562 cells (UniProt P20701). As to the kind of experiment: FRET or BRET.
Chain of UniProt P20701 (P20701 whole entry, looked up): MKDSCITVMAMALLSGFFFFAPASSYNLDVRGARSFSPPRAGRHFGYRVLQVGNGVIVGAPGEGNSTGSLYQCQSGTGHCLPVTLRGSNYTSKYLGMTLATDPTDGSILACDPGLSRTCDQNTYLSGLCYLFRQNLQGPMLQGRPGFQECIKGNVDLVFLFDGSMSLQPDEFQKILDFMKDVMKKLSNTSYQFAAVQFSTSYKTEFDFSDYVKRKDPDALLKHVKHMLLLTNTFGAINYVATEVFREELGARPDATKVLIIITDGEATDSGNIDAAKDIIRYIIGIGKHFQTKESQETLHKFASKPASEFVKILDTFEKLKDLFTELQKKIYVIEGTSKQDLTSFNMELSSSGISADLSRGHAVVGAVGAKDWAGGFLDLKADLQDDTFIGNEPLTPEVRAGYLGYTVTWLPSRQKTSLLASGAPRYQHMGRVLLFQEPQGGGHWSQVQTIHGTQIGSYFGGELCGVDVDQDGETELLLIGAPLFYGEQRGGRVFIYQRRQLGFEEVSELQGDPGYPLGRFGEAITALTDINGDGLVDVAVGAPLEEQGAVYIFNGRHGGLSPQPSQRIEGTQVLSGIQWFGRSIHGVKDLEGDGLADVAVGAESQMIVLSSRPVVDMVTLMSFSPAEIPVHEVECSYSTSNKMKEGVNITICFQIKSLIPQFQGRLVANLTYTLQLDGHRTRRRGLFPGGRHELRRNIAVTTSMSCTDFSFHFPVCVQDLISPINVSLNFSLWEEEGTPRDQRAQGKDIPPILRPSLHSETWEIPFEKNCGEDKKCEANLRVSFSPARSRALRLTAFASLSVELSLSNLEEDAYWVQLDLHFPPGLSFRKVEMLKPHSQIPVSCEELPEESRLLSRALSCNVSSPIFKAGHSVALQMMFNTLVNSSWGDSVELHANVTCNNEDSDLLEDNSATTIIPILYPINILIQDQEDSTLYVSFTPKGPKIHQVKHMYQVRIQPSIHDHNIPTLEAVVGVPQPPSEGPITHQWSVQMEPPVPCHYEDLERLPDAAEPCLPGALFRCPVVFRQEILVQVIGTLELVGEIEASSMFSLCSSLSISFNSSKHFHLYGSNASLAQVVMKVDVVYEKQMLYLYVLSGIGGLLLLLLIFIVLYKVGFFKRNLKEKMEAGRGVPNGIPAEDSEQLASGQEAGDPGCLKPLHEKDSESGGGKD

In turn, “αL-CFP/β2 (LFA-1 with dimerizing CFP on αL) on K562 cells (from UniProt P20701 26-1170; P05107 23-769) (receptor)” had a K (analogous to the dissociation constant of microclusters) of 532.
